Assay results published in the supplement of paper PMC11316812.
± gives the standard deviation of the averaged measurements.

Tests used:
[1] = test system: hTERT-HMEC; experiment: percentage of EdU-negative (G0-arrested) nuclei per well, 72 h; higher = more G0 arrest; settings: reference: sequence is the full UniProt precursor, the tested protein was the secreted form or ectodomain
[2] = test system: MCF7; experiment: as above; settings: reference: sequence is the full UniProt precursor, the tested protein was the secreted form or ectodomain
[3] = protein concentration 0.02275 µM
[4] = protein concentration 0.2275 µM
[5] = protein concentration 0.01375 µM
[6] = protein concentration 0.1375 µM
[7] = protein concentration 0.0225 µM
[8] = protein concentration 0.0251975 µM
[9] = protein concentration 0.251975 µM
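Note: secreted proteins added to cultured cells, EdU pulse at the end, nuclei found by Hoechst imaging, EdU status from nuclear versus surrounding ring intensity ratio, PBS as neutral control.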

Row | Sequence | percentage of EdU-negative [1, 7] | percentage of EdU-negative ([1]; protein concentration 0.225 µM) | percentage of EdU-negative [2, 7] | percentage of EdU-negative ([2]; protein concentration 0.225 µM) | also measured
1 | MGILKLQVFLIVLSVALNHLKATPIESHQVEKRKCNTATCATQRLANFLVHSSNNFGAILSSTNVGSNTYGKRNAVEVLKREPLNYLPL |  |  |  |  | percentage of EdU-negative [1, 3]: 4.22 ± 0.57%; percentage of EdU-negative [1, 4]: 5.2 ± 0.82%; percentage of EdU-negative [2, 3]: 26.1 ± 1.4%; percentage of EdU-negative [2, 4]: 26.8 ± 4.2%
2 | MSGAPTAGAALMLCAATAVLLSAQGGPVQSKSPRFASWDEMNVLAHGLLQLGQGLREHAERTRSQLSALERRLSACGSACQGTEGSTDLPLAPESRVDPEVLHSLQTQLKAQNSRIQQLFHKVAQQQRHLEKQHLRIQHLQSQFGLLDHKHLDHEVAKPARRKRLPEMAQPVDPAHNVSRLHRLPRDCQELFQVGERQSGLFEIQPQGSPPFLVNCKMTSDGGWTVIQRRHDGSVDFNRPWEAYKAGFGDPHGEFWLGLEKVHSITGDRNSRLAVQLRDWDGNAELLQFSVHLGGEDTAYSLQLTAPVAGQLGATTVPPSGLSVPFSTWDQDHDLRRDKNCAKSLSGGWWFGTCSHSNLNGQYFRSIPQQRQKLKKGIFWKTWRGRYYPLQATTMLIQPMAAEAAS [Q9BY76] |  |  |  |  | percentage of EdU-negative [1, 5]: 5.28 ± 0.74%; percentage of EdU-negative [1, 6]: 6.14 ± 0.59%; percentage of EdU-negative [2, 5]: 23.9 ± 1.8%; percentage of EdU-negative [2, 6]: 27.4 ± 1.9%
3 | MLPWLLVFSALGIQAWGDSSWNKTQAKQVSEGLQYLFENISQLTEKGLPTDVSTTVSRKAWGAEAVGCSIQLTTPVNVLVIHHVPGLECHDQTVCSQRLRELQAHHVHNNSGCDVAYNFLVGDDGRVYEGVGWNIQGVHTQGYNNISLGFAFFGTKKGHSPSPAALSAMENLITYAVQKGHLSSSYVQPLLGKGENCLAPRQKTSLKKACPGVVPRSVWGARETHCPRMTLPAKYGIIIHTAGRTCNISDECRLLVRDIQSFYIDRLKSCDIGYNFLVGQDGAIYEGVGWNVQGSSTPGYDDIALGITFMGTFTGIPPNAAALEAAQDLIQCAMVKGYLTPNYLLVGHSDVARTLSPGQALYNIISTWPHFKH [Q96LB8] | 5.75 ± 0.76% | 6.41 ± 1.2% | 24.7 ± 0.28% | 25 ± 1.5% | 
4 | MAPLKMLALVTLLLGASLQHIHAARGTNVGRECCLEYFKGAIPLRKLKTWYQTSEDCSRDAIVFVTVQGRAICSDPNNKRVKNAVKYLQSLERS |  |  |  |  | percentage of EdU-negative [1, 8]: 5.05 ± 1.6%; percentage of EdU-negative [1, 9]: 5.85 ± 0.93%; percentage of EdU-negative [2, 8]: 26 ± 0.51%; percentage of EdU-negative [2, 9]: 25.9 ± 0.28%
5 | MEKILILLLVALSVAYAAPGPRGIIINLENGELCMNSAQCKSNCCQHSSALGLARCTSMASENSECSVKTLYGIYYKCPCERGLTCEGDKTIVGSITNTNFGICHDAGRSKQ | 5.19 ± 0.81% | 6.85 ± 1.2% | 23.9 ± 2.4% | 28.37 ± 0.035% | 
6 | MAPRARRRRPLFALLLLCALLARLQVALQIAPPCTSEKHYEHLGRCCNKCEPGKYMSSKCTTTSDSVCLPCGPDEYLDSWNEEDKCLLHKVCDTGKALVAVVAGNSTTPRRCACTAGYHWSQDCECCRRNTECAPGLGAQHPLQLNKDTVCKPCLAGYFSDAFSSTDKCRPWTNCTFLGKRVEHHGTEKSDAVCSSSLPARKPPNEPHVYLPGLIILLLFASVALVAAIIFGVCYRKKGKALTANLWHWINEACGRLSGDKESSGDSCVSTHTANFGQQGACEGVLLLTLEEKTFPEDMCYPDQGGVCQGTCVGGGPYAQGEDARMLSLVSKTEIEEDSFRQMPTEDEYMDRPSQPTDQLLFLTEPGSKSTPPFSEPLEVGENDSLSQCFTGTQSTVGSESCNCTEPLCRTDWTPMSSENYLQKEVDSGHCPHWAASPSPNWADVCTGCRNPPGEDCEPLVGSPKRGPLPQCAYGMGLPPEEEASRTEARDQPEDGADGRLPSSARAGAGSGSSPGGQSPASGNVTGNSNSTFISSGQVMNFKGDIIVVYVSQTSQEGAAAAAEPMGRPVQEETLARRDSFAGNGPRFPDPCGGPEGLREPEKASRPVQEQGGAKA [Q9Y6Q6] | 5.19 ± 0.68% | 5.83 ± 0.025% | 24 ± 1.9% | 25.6 ± 1.8% | 
